Measured values as given in patent US20090156525A1, “Low-Density Lipoprotein Receptor-Related Protein 2 Clears Amyloid-Beta Peptide A cross the Blood-Brain Barrier via Apolipoprotein J” (priority 2005, published 2009).

Columns and labels:
[1] = Brain clearance technique: clearance of radiolabelled tracer from brain ISF and across the BBB after microinjection into the caudate nucleus; format: in vivo; details: for clearance from the brain ISF: 40 nM tracer microinjected into brain ISF, FIG. 1A/1B
Method: The brain clearance technique was used to determine Aβ clearance across the BBB and from CSF, as previously described (Shibata et al., 2000; Deane et al., 2004). Briefly, 0.5 μl of ^125I-Aβ42 (40 nM), ^125I-apoJ (40 nM) or ^125I-Aβ-apoJ (40 nM) was microinjected into the caudate nucleus simultaneously with ^14C-inulin (an inert reference molecule as an index of interstitial fluid (ISF) bulk flow) and, after 30 minutes (a typical time point unless stated), the brain was removed and radiolabel was counted.
^125I-Aβ-apoJ complex was prepared by incubating ^125I-Aβ42 and apoJ at a molar ratio of 15 to 1 (^125I-Aβ42: apoJ) at 37° C. for 3 hours, and excess ^125I-Aβ42 was removed by ultrafiltration with a 30 kD molecular weight cut-off membrane.
(§1) Percentage ^125I-(TCA precipitable) recovery in brain=NB/NI×100. Where NB is the ^125I-(TCA precipitable) recovered in brain and NI is the ^125I-(TCA precipitable) injected into brain ISF or CSF. Total ^125I-(TCA precipitable) clearance from brain ISF consists of two components: clearance across the BBB and clearance via bulk flow of ISF. Therefore, clearance across the BBB was calculated from the difference between total ^125I-(TCA precipitable) clearance and ^14C-inulin clearance (ISF bulk flow) as described (Shibata et al., 2000). Similarly, the percentage ^125I-(TCA precipitable) recovery in brain after microinjection into the CSF=NB/NI×100.

[2] = CSF clearance study: microinjection into the lateral ventricle; format: in vivo; details: 40 nM; after 30 minutes; microinjection into the lateral ventricles; FIG. 1E
Method: In the CSF clearance studies, 0.5 μl of ^125I-apoJ (40 nM) was micro-injected into the right lateral ventricles (coordinates (mm) from bregma: antero-posterior −0.5, mediolateral +1.0, dorsoventral −2.2) simultaneously with ^14C-inulin (the inert reference molecule), the brain was removed after 30 minutes, and radiolabel was counted.
as §1

[3] = after microinjection into the brain, FIG. 1C

Row | Substance | clearance of ^125I-Aβ42 across the BBB ([1]; in vivo) | clearance via the ISF bulk flow ([1]; in vivo) | clearance from the CSF as compared to ^14C-inulin [2] | clearance from the brain ISF [1] | clearance from brain relative to ^125I-Aβ42 (40 nM) ([1]; 40 nM, time-dependent clearance, FIG. 1B) | levels in plasma, compared to inulin [1, 3] | time dependent appearance of TCA precipitable radioactivity in CSF, compared to ^14C-inulin [1, 3]
1 | ^125I-Aβ42: amyloid-β peptide Aβ42, amyloidogenic with high β-sheet content, radioiodinated tracer [reference compound] | 22%±2% | no a significant change |  |  |  |  | 
2 | ^125I-apoJ: apolipoprotein J, an 80 kDa sulfated glycoprotein, ligand of LRP2, radioiodinated tracer |  |  | rapidly cleared | rapidly cleared | substantially faster | relatively increased | decreased
3 | inulin [^14C-inulin, reference compound] |  |  |  | slowly removed |  |  | 
